From publication PMC4866688, “Trypanosoma brucei DHFR-TS Revisited: Characterisation of a Bifunctional and Highly Unstable Recombinant Dihydrofolate Reductase-Thymidylate Synthase” (PLoS Neglected Tropical Diseases, 2016)

Substrate: O=c1ccn([C@H]2C[C@H](O)[C@@H](COP(=O)(O)O)O2)c(=O)[nH]1
Assay: Kinetic analysis of TS activity (substrates)
Type: biochemical, Trypanosoma brucei
Details: other: clarified E. coli lysate, spectrophotometric assay
Protocol: The initial characterisation of TS was also carried out using a spectrophotometric assay. Owing to the pronounced instability of the recombinant protein, clarified ThyA^- E. coli lysates were used for characterisation, where the concentration of TS was calculated based on DHFR activity. […] . Enzymatic reactions were initiated by the addition of CH2THF (200 μM, Shircks Laboratories) and initial rates of CH2THF oxidation to DHF monitored by the increase in absorbance at 340 nm (ε = 6,200 M^-1 cm^-1). This method is not suitable for determination of the Km^app for CH2THF and a radiometric method was used instead. This method measures the release of tritiated water from 5-[^3H]-dUMP (American Radiochemicals, 14.3 Ci mmol^-1). Assays (40 μl final volume) contained 200 nM TS and varying amounts of CH2THF (37.5 μM– 4.8 mM) in DHFR-assay buffer. Reactions were initiated by adding 200 μM [^3H]-dUMP (5.55 × 10^5 dpm nmol^-1) and stopped after 10 min by the addition of 20 μl trichloroacetic acid. Residual 5-[^3H]-dUMP was removed by the addition of 200 μl of 10% (w/v) activated charcoal (Sigma). Aliquots (100 μl) of the supernatants were added to 2 ml of scintillation fluid (Pico-Fluor 40™, Packard Bioscience) and radioactivity determined using a Beckmann LS 6500 Scintillation Counter. […] Protein concentrations were determined using the BioRad protein assay based on the method of Bradford. […]

B1: T. brucei TS (Tsf-TbDHFR-TS) (Trypanosoma brucei brucei) (protein)
chain: MLSLTRILRKKIPVHELAGKISRPPLRPFSVVVASDEKGGIGDGGTIPWEIPEDMQYFRRVTTNLRGKNVKPSPSKRNAVVMGRKTWDSLPPKFRPLSNRLNVVLSRSATKEQLLAGIPDPIKRAEAANDVVAVNGGLEDALRMLVSKEHTSSIETVFCIGGGTIYKQALCAPCVNVLQAIHRTVVRPASNSCSVFFDIPAAGTKTPEGLELVRESITDERVSTGAGGKKYQFEKLVPRNSEEEQYLNLVGRIIDEGCTKCDRTGVGTRSLFGAQMRFSLRNNRLPLLTTKRVFWRGVCEELLWFLRGETNAKLLSDKGIHIWDGNGSRAFLDSRGLTDYDEMDLGPVYGFQWRHFGADYISCKVDSEGKGVDQIANIVKSLIENPDDRRMICTAWNPAALPRMALPPCHMMAQFYVSNGELSCMLYQRSCDMGLGVPFNIASYALLTFLMAKASGLRPGELVHTLGDAHVYSNHVEPCRKQLKRVPRPFPFIVFKQDKEFLEDFQESDIEVIDYSPYPVISMEMAV
notes: The open reading frame of DHFR-TS was amplified by PCR from T. brucei gDNA using specific oligonucleotides; made in house; host or cells: thyA- E. coli derived from BL21 Star (DE3); unpurified clarified lysate
- Km: 8.2 ± 0.6 µM
